A word on the Kd: it is the constant that tells how readily two partners part at equilibrium. Low readings indicate a tighter complex, high ones a looser complex. In general, EC50 (read off the curve) refers to the midpoint of the concentration-response curve.

The target in test [1] is T1, biotinylated cynomolgus CD203c (bio-cyCD203c, Icosagen) (cynomolgus monkey, UniProt A0A2K5TKP4 31-874, biotinylated (site not stated)).
T1 construct: Captured on a Biotin CAPture chip for SPR; also called cyno CD203c
T1 sequence: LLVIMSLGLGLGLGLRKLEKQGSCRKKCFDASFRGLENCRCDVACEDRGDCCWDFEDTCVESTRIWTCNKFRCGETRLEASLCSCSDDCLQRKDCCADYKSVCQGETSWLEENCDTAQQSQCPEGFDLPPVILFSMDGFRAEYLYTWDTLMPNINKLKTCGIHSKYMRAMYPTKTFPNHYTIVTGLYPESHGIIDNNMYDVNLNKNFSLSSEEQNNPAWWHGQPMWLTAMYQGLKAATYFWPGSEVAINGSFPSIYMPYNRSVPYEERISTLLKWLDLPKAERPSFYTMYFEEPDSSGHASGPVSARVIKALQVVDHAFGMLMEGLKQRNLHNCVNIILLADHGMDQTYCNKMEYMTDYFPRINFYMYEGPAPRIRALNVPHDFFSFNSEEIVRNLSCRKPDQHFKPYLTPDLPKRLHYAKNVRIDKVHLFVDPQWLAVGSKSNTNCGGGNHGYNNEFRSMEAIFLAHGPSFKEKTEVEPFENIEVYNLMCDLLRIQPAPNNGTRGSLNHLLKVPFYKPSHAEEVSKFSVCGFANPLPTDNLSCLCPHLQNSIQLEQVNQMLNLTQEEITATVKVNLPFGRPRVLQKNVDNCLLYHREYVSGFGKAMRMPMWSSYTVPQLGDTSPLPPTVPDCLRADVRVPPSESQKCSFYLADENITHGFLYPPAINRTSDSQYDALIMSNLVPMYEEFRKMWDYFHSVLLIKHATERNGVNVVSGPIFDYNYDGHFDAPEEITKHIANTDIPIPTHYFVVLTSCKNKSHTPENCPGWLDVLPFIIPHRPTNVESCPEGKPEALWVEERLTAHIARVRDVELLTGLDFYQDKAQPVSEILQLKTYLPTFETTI
The test is described as follows: SPR (Biacore), biotinylated CD203c captured on the chip, Fab as analyte 1000 - 7.81 nM; response-versus-concentration fits in FIG. 11A-11C. The protocol: (§1) Biotinylated versions of the CD203c proteins were captured on a BiotinCap chip, and the antibodies injected in-solution in 2-fold serial dilutions. An SPR affinity determination assay was carried out on a BIAcore T20 using the conditions described below: [0212] […] Ligand Capture—biotinylated antigen: bio-huCD203c (Acro, Cat. nr. H52H4) and bio-cyCD203c (Icosagen) at 20 nM and 10 nM, respectively, in 1×HBS-EP+pH 7.4, on flow cell 2 over 1 min at 10 μl/min [0215] […] Complete blank assay runs without analyte antibody were included as blank reference. [0216] […] Regeneration: Baseline levels were restored using the regeneration solutions provided in the Biotin CAPture kit [0218] SPR running buffer: 1×HBS-EP+pH 7.4 (Cytiva; cat. nr. BR100669) [0219] Analysis: Data was analyzed using the Biacore Insight Evaluation Software by the steady state affinity model or the 1:1 binding model. Sensorgrams were referenced to flow cell 1 and the 0 nM concentration cycle.
(In general: SPR reads the build-up and loss of mass on a sensor chip optically.)

Test [2] deals with T2, biotinylated human CD203c (bio-huCD203c, Acro, Cat. nr. H52H4) (human, UniProt O14638 49-875, limits assumed, biotinylated (site not stated)).
T2 construct: Captured on a Biotin CAPture chip for SPR
T2 sequence (looked up): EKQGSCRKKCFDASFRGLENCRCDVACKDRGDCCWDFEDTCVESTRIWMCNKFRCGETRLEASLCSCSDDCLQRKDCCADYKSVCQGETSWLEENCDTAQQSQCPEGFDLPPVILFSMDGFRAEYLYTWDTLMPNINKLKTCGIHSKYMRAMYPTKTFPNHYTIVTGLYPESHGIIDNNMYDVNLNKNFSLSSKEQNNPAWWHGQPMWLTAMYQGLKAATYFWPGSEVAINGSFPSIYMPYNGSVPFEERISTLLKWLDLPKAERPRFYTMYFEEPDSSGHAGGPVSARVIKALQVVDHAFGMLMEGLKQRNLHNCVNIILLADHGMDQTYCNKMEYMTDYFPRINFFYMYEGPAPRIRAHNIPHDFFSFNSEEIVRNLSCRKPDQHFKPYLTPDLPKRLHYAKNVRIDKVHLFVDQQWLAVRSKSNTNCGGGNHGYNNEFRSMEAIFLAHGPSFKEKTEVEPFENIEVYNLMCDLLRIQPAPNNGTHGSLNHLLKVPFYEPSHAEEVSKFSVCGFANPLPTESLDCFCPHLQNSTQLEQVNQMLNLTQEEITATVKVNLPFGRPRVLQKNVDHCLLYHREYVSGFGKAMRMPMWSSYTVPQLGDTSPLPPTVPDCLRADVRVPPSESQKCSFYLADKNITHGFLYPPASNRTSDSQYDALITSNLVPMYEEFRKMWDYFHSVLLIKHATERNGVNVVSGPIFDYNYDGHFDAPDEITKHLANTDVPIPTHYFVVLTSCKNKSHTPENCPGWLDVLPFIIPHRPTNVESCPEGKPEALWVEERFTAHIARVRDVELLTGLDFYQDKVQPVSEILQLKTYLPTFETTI
The test is described as above. On the procedure:
as §1

Test [3] deals with c-Kit (antigen of the binding assay of FIG. 9A) (Homo sapiens (Human), UniProt P10721 26-524). The test can be described thus: plate binding assay on Human c-KIT, A450-A630 (ratio corrected).
Sequence of c-Kit (antigen of the binding assay of FIG. 9A) (P10721 26-524 limits assumed): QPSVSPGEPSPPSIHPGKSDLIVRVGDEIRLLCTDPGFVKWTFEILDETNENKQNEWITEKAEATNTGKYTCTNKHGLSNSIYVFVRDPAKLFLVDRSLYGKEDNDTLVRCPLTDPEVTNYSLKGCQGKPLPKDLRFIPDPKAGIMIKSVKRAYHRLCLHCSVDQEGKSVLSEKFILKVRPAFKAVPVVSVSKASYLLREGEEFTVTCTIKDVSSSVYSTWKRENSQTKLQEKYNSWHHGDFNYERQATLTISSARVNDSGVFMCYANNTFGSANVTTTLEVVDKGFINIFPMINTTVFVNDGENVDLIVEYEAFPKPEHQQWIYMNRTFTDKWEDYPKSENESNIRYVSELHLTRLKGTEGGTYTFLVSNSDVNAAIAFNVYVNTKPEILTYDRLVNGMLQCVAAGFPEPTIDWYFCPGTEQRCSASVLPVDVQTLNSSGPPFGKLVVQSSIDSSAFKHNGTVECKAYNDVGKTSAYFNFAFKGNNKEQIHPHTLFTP
Test [4] concerns the target T3, CD203c (ENPP3) (antigen of the binding assay of FIG. 9B) (Homo sapiens (Human), UniProt O14638 31-875).
T3 construct: not shown: His tag of the recombinant protein
T3 sequence: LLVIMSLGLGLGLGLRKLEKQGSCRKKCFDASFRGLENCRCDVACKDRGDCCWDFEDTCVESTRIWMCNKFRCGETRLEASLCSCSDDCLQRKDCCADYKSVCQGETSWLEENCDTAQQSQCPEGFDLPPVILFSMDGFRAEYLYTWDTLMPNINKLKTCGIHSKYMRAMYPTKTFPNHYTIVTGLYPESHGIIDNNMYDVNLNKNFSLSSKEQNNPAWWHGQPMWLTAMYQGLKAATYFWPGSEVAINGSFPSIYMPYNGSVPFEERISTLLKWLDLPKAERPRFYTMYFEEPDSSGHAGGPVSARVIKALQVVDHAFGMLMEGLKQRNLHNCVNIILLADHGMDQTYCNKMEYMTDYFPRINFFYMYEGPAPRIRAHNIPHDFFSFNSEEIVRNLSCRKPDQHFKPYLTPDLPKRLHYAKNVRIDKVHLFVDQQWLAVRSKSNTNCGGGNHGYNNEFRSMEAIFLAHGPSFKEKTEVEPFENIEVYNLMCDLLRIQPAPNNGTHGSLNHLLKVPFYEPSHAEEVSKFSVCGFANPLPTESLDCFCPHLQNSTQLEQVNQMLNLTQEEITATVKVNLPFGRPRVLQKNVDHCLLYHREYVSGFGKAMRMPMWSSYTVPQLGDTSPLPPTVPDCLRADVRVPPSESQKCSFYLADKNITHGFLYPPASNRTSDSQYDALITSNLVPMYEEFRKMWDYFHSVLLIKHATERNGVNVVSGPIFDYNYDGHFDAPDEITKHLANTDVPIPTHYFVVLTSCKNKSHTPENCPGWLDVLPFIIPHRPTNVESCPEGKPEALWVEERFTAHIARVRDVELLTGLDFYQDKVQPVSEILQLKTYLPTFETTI
The test can be described thus: plate binding assay on Human ENPP3, A450-A630 (ratio corrected).

B1: 1.27-Fab (Fab, V domains shown)
VH: EVQLVQSGAEVKKPGESLKISCKGSGYRFTSYWIGWVRQMPGKGLEWMGIIYPGDSDTRYSPSFQGQVTISADKSISTAYLQWSSLKASDTAMYYCARKDYYYYAMDVWGQGTTVTVSS
VL: DIQMTQSPSSLSASVGDRVTITCRASQGIRTNLAWFQQKPGKAPKSLIYAASSLQSGVPSRFSGSGSGTDFTLTISSLQPEDFATYYCQQYNSYPRTFGGGTKVEIK
Take B1: the figures for the Kd in test [1] and in test [2] were 0.387 µM and 0.705 µM, respectively.

B2: bispecific pair with alternative common light chain VL3: MH1 VH / 2.14_1 VH / VL3 (bispecific antibody, V domains shown)
VH 1: QVQLVQSGAEVKKPGASVKVSCKASGYTFTDYYMNWVRQAPGQGLEWMGRIYPGSGNTYYAQKFQGRVTMTRDTSTSTVYMELSSLRSEDTAVYYCARGVYYYDYWGQGTLVTVSS
VH 2: QVQLQESGPGLVKPSQTLSLTCTVSGGSISSGGYYWSWIRQHPGKGLEWIGIIYYSGSTYYNPSLKSRVTISVDTSKNQFSLKLNSVTAADTAVFYCARVAIVTTIPGGMDVWGQGTTVTVSS
VL: EIVLTQSPDFQSVTPKEKVTITCRASQGIRTNLAWYQQKPDQSPKLLIKAASSLQSGVPSRFSGSGSGTDFTLTINSLEAEDAATYYCQQYNSYPRTFGQGTKVEIK
Regarding B2, the “EC50 (read off the curve)” value in test [3] was roughly 0.1 mg/L. For the same molecule, the binding result in test [4] is reported as “no binding (tested: 200 µg/ml)”.

Source of the values: patent US20260028424A1 (GRANULAR THERAPEUTICS, published 2026).
